Measurements from paper PMC7007526.

Molecular target: CPn0678–GFP (Chlamydia pneumoniae)
Experiment: FRET or BRET

Question: With “mCherry–SNX9 (from UniProt Q9Y5X1 1-595) (natural protein)” as the substance, how does the average donor fluorescence lifetime with the acceptor (FLIM-FRET) read?
Answer: 2.6 ns

Question: And the reduction of donor fluorescence lifetime (FLIM-FRET)?
Answer: 256 ps
